The record followed here is patent publication US20090053213A1.

Experiment [1] addresses human GM-CSF receptor alpha chain (human) (UniProt P15509). Briefly: FACS on CHO-GMRa#11 cells, MAB1006 at 1 µg/ml, R-PE anti-mouse secondary, FL2 channel.
The target in experiment [2] is human GM-CSF (human) (UniProt P04141). The experiment is described as follows: FACS receptor inhibition assay: inhibition of binding of 0.5 µg/ml biotinylated GM-CSF to GM-CSF receptor alpha on CHO-GMRa#11 cells.
Experiment [3] has the same target. Briefly: cell-based or functional assay.
In experiment [4] the target is macaca mulatta (rhesus) GM-CSF (Macaca mulatta (rhesus)). Briefly: cell-based or functional assay.

Sequence of human GM-CSF (human) (P04141 18-144): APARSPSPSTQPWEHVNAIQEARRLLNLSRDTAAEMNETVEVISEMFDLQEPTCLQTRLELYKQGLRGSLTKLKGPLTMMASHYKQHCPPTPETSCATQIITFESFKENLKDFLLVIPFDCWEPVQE
Sequence of human GM-CSF receptor alpha chain (human) (P15509 23-400): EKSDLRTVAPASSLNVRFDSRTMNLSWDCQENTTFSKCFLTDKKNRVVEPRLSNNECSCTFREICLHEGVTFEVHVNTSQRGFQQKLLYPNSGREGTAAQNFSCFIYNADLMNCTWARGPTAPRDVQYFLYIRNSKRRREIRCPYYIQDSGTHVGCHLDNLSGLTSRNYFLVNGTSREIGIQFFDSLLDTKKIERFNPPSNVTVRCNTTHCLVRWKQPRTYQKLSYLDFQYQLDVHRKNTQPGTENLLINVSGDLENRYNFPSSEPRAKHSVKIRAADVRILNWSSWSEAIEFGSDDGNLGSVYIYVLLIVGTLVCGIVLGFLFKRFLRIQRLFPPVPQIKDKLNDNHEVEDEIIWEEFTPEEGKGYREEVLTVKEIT

The substance murine IgG MAB1006 (antibody) yielded a median fluorescence value (MFL value) in experiment [1] of 157.
As usually defined, the % inhibition is the percentage by which the read-out fell short of the control. The substance MAB215 (antibody) had a % inhibition at 5 µg/ml antibody with human GM-CSF (human) [2] of 50%. In the experiment with human GM-CSF (human) [3], this substance yielded an IC50 (pM) in TF-1 proliferation assay, human GM-CSF 0.25 ng/ml of 4320 pM; an IC50 (pM) in TF-1 proliferation assay, human GM-CSF (E. coli) of 625 pM; an IC50 (pM) in TF-1 proliferation assay, human GM-CSF (HEK293) of 54 pM; an IC50 x-fold improved compared to BVD2-21C11, TF-1 proliferation assay of 1.5 fold. Further, the IC50 (pM) in TF-1 proliferation assay, macaca GM-CSF (HEK293) in experiment [4] was 190 pM.
